Laboratory results published in ChEMBL document CHEMBL5620400, “Design, synthesis, antiviral evaluation, and In silico studies of acrylamides targeting nsP2 from Chikungunya virus” (Eur J Med Chem, 2023).
The source made the active and inactive calls. The calls are words filed in the database; no cut-off is given here.

What was measured:
[1] = system: Sindbis virus; assay: Antiviral activity against SINV infected african green monkey Vero cells assessed as inhibition of virus induced cytopathic effect at 100 uM measured after 48 hrs by microscopic imaging analysis; format: functional, organism-based
[2] = system: O=C(/C=C/c1ccc(Cl)cc1Cl)Nc1ccccc1; assay: (§1) Binding affinity to CHIKV nsP2 assessed as Vmax (at tested concentration) by measuring fluorescence by Lineweaver-Burk plot; settings: Chikungunya virus
[3] = system: COc1ccccc1/C=C/C(=O)Nc1ccccc1; assay: as §1; settings: Chikungunya virus
[4] = system: O=C(/C=C/c1ccc(C(F)(F)F)cc1)Nc1ccccc1; assay: as §1; settings: Chikungunya virus
[5] = system: O=C(/C=C/c1ccc(Br)cc1)Nc1ccccc1; assay: as §1; settings: Chikungunya virus
[6] = system: O=C(/C=C/c1ccc(Cl)cc1Cl)Nc1ccccc1; assay: (§2) Binding affinity to CHIKV nsP2 assessed as Vmax (at I = 0) by measuring fluorescence by Lineweaver-Burk plot; settings: Chikungunya virus
[7] = system: COc1ccccc1/C=C/C(=O)Nc1ccccc1; assay: as §2; settings: Chikungunya virus
[8] = system: O=C(/C=C/c1ccc(C(F)(F)F)cc1)Nc1ccccc1; assay: as §2; settings: Chikungunya virus
[9] = system: O=C(/C=C/c1ccc(Br)cc1)Nc1ccccc1; assay: as §2; settings: Chikungunya virus
[10] = system: O=C(/C=C/c1ccc(Cl)cc1Cl)Nc1ccccc1; assay: (§3) Binding affinity to CHIKV nsP2 assessed as Km by measuring fluorescence by multimode microplate reader; settings: Chikungunya virus
[11] = system: COc1ccccc1/C=C/C(=O)Nc1ccccc1; assay: as §3; settings: Chikungunya virus
[12] = system: O=C(/C=C/c1ccc(C(F)(F)F)cc1)Nc1ccccc1; assay: as §3; settings: Chikungunya virus
[13] = system: O=C(/C=C/c1ccc(Br)cc1)Nc1ccccc1; assay: as §3; settings: Chikungunya virus

Compound: O=C(/C=C/c1ccc(Cl)cc1Cl)Nc1ccccc1
- Activity [1]: Active

Compound: Polyprotein P1234 (Chikungunya virus (strain S27-African prototype) (CHIKV)), Q8JUX6
- Vmax [2]: 0.83
- Vmax [3]: 0.71
- Vmax [4]: 1.58
- Vmax [5]: 0.87
- Vmax [6]: 0.84
- Vmax [7]: 0.76
- Vmax [8]: 1.57
- Vmax [9]: 0.73
- Km [10]: 3.5 µM
- Km [11]: 4.9 µM
- Km [12]: 9.7 µM
- Km [13]: 5.4 µM

Compound: O=C(/C=C/c1ccc(Br)cc1)Nc1ccccc1
- Activity [1]: Active

Compound: COc1ccccc1/C=C/C(=O)Nc1ccccc1
- Activity [1]: Active

Compound: O=C(/C=C/c1ccc(C(F)(F)F)cc1)Nc1ccccc1
- Activity [1]: Active
